For assay [1], the target named is HLA-DRA*01:01 W168R / HLA-DRB1*04:01 No mut. The assay is described as follows: BLI.
In assay [2] the target is HLA-DRA*01:01 W168R / HLA-DRB1*04:01 F31V/H33N. The assay is described as follows: BLI. On the technique in general: In BLI a coated tip is dipped into the sample, and binding shifts an interference pattern.
In assay [3] the target is HLA-DRA*01:01 No mut. / HLA-DRB1*04:01 F31I/H33N. The assay is described as follows: BLI.
For assay [4], the target named is HLA-DRA*01:01 W168R / HLA-DRB1*04:01 F31I/H33N. The assay is described as follows: BLI.
The target in assay [5] is HLA-DRA*01:01 No mut. / HLA-DRB1*04:01 F31V/H33N. The assay is described as follows: BLI.
For assay [6], the target named is T1, recombinant HLA-DR (DRA*01:01/DRB1*04:01) with covalently attached Influenza Hemagglutinin (HA) peptide (human;Influenza). Description: BLI.
Assay [7] concerns the target T1, recombinant HLA-DR …. Description: BLI. This is another data set of the same source.
Assay [8] concerns the target BJAB cells (human, UniProt P01903 26-254). The assay is described as follows: flow.
Assay [9] deals with T1, recombinant HLA-DR …. Description: BLI. The source holds these as a separate data set.

Where two headings read alike, the source gives them in different places.

Sequence of BJAB cells (P01903 whole entry): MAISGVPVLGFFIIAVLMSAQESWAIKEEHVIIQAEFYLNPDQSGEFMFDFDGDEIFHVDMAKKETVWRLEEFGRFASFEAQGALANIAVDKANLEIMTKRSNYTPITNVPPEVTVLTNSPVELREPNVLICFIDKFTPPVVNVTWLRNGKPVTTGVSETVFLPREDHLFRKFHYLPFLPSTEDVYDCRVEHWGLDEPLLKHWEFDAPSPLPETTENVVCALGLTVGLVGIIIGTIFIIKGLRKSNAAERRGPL

B1: 44H10 (antibody, V domains shown)
VH: QVQLKESGPGLVAPSQSLSITCTVSGFSLTSYGVHWVRQPPGKGLEWLGVIWAGGSINYNSALMSRLSISKDNFKSQVFLKMSSLQTDDTAMYYCARAYGDYVHYAMDYWGQGTSVTASS
VL: DIQMTQSPSSLSASLGQRVSLTCRASQEISGYLTWLQQKPDGTIKRLVYAASTLDSGVPKRFSGSRSGSDYSLTISSLESEDFADYYCLQYTNYPLTFGAGTKLELKR
For the molecule B1, the dissociation constant (Kd) amounted to 2.8 nM in assay [1]; 0.2 nM in [2]; 0.5 nM in assay [3]; 0.2 nM in assay [4]; 0.4 nM in [5].

B2: chimeric human IgG1 anti-HLA-DR 44H10 antibody (antibody, V domains shown)
VH: QVQLKESGPGLVAPSQSLSITCTVSGFSLTSYGVHWVRQPPGKGLEWLGVIWAGGSINYNSALMSRLSISKDNFKSQVFLKMSSLQTDDTAMYYCARAYGDYVHYAMDYWGQGTSVTASS
VL: DIQMTQSPSSLSASLGQRVSLTCRASQEISGYLTWLQQKPDGTIKRLVYAASTLDSGVPKRFSGSRSGSDYSLTISSLESEDFADYYCLQYTNYPLTFGAGTKLELKR
On to B2, for which the dissociation constant (Kd) in assay [6] was 1.5 nM; in [7], 199 nM.

B3: V17 (antibody, V domains shown)
VH: QVTLKESGPVLVKPTETLTLTCTVSGFSLTSYGVHWIRQPPGKALEWLAVIWAGGSISYSTSLMSRLTISKDTSKSQVVLTMTNMDPVDTATYYCARAYGDYVHYAMDYWGQGTLVTVSS
VL: DIQMTQSPSSLSASVGDRVTITCRASQEISGYLTWLQQKPGKAPKLLIYAASTLDSGVPSRFSGSGSGTDFTLTISSLQPEDFATYYCLQYTNYPLTFGQGTKLEIK
In assay [8], B3 gave a 50% effective concentration (EC50) of 5.02 µg/mL.

B4: V20 (K60 back-mutation) (antibody, V domains shown)
VH: QVTLKESGPVLVKPTETLTLTCTVSGFSLTSYGVHWIRQPPGKALEWLAVIWAGGSISYSTSLMSRLTISKDTSKSQVVLTMTNMDPVDTATYYCARAYGDYVHYAMDYWGQGTLVTVSS
VL: DIQMTQSPSSLSASVGDRVTITCRASQEISGYLTWLQQKPGKAPKLLIYAASTLDSGVPKRFSGSGSGTDFTLTISSLQPEDFATYYCLQYTNYPLTFGQGTKLEIK
In turn, B4 yielded an EC50 in assay [8] of 2.21 µg/mL.

B5: humanized 44H10 variant V21 (antibody, V domains shown)
VH: QVTLKESGPVLVKPTETLTLTCTVSGFSLTSYGVHWIRQPPGKALEWLAVIWAGGSISYSTSLMSRLTISKDTSKSQVVLTMTNMDPVDTATYYCARAYGDYVHYAMDYWGQGTLVTVSS
VL: DIQMTQSPSSLSASVGDRVTITCRASQEISGYLTWLQQKPGKAPKLLIYAASTLDSGVPKRFSGSRSGTDFTLTISSLQPEDFATYYCLQYTNYPLTFGQGTKLEIK
Turning to B5, the dissociation constant Kd in assay [9] turned out to be 157 nM; in assay [7], 221 nM.

B6: V14 with the V71K and F78V mutations in the VH (antibody, V domains shown)
VH: QVQLQESGPGLVKPSETLSLTCTVSGFSLTSYGVHWIRQPPGKGLEWIGVIWAGGSINYNSALMSRVTISKDTSKNQVSLKLSSVTAADTAVYYCARAYGDYVHYAMDYWGQGTLVTVSS
VL: DIQMTQSPSSLSASVGDRVTITCRASQEISGYLTWLQQKPGKAPKLLIYAASTLDSGVPSRFSGSGSGTDFTLTISSLQPEDFATYYCLQYTNYPLTFGQGTKLEIK
B6: the Kd in [9] was determined as 206 nM.

B7: V19 (R66 back-mutation) (antibody, V domains shown)
VH: QVTLKESGPVLVKPTETLTLTCTVSGFSLTSYGVHWIRQPPGKALEWLAVIWAGGSISYSTSLMSRLTISKDTSKSQVVLTMTNMDPVDTATYYCARAYGDYVHYAMDYWGQGTLVTVSS
VL: DIQMTQSPSSLSASVGDRVTITCRASQEISGYLTWLQQKPGKAPKLLIYAASTLDSGVPSRFSGSRSGTDFTLTISSLQPEDFATYYCLQYTNYPLTFGQGTKLEIK
In the case of B7, in assay [8], the EC50 turned out to be 2.02 µg/mL.

For orientation: Kd means the concentration at which binding is half-saturated. By EC50 is commonly meant the concentration giving half of the maximal effect. Read a low EC50 as a more potent agent.
